Reference: paper PMC4889922
Where no end group is shown, it is not given here. [ ]: non-standard residue; d: D form. pS = N[C@@H](COP(=O)(O)O)C(=O)O

What was measured:
[1] = target: SHARP (human SPOC domain) SPOC domain, 3477-3664 (UniProt Q96T58); assay: anti-Flag co-IP, NCoR blot; conditions: reference: NCoR-C wild type; sites S2449,S2451
ITC = substrate: SPOC domain from murine SHARP, residues 3474-3643 (mouse) (UniProt Q62504); assay: ITC

binding against the reference [1]	Kd (ITC)	Molecule
lost		NCoR NCoR-C, 1942-2453 (from UniProt Q60974) NCoR-C S2449A/S2451A
	50 nM	REPAPLLSAQYETL[pS]D[pS]DD [NCoR C-terminal peptide, double-phosphorylated]
